In the DeepSol protein solubility set:

Test: soluble on expression in E. coli; label from the status in PepcDB or PDB records

| Sequence | soluble on expression in E. coli |
| --- | --- |
| ASELNIYSARHYNADFEIIKKFEEKTGIKVNHTQAKASELIKRLSLEGSNSPADIFITADISNLTEAKNLGLLSPVSSKYLEEFIPAHLRDKDKEWFAITKRARIIAYNKNTNIDISKMKNYEDLAKAEFKGEIVMRSATAPYSKTLLASIIANDGNKEAKAWAKGVLENLATNPKGGDRDQARQVFAGEAKFAVMNTYYIGLLKNSKNPKDVEVGNSLGIIFPNQDNRGTHINISGIAMTKSSKNQDAAKKFMEFMLSPEIQKILTDSNYEFPIRNDVELSQTVKDFGTFKEDQIPVSKIAENIKEAVKIYDEVGFRIEGR | soluble |
| MGSDKIHHHHHHVGAGHPRKELEGKAKATKQQQDLKKLLSGQKHVAFPQQVVALPFDASANLTALVYEPLLPLQYSDYKGAQLITGLRKIHEKNVVHGDISVRNIMQSKQGVAKFIDLNPMDPLSESKKSRDIRYLGKSLLEMKFAKSLEQENHRMLSYIAKHEDIYSKAQSNQAYQELKYNNAWFTYSLTQSGSIEKVPGDMDTFLELLGMEEIIKRDLEKQAGEVFSFDGKFAKFISEQPDPENTDFTAMALYMLEHGQIPNNADGILAKLLRVKQ | not soluble |
| MVLRDKMILLDENTKAIVQGITGRQGSFHTKKMLECGTKIVGGVTPGKGGQNVHGVPVFDTVKEAVKETDANASVIFVPAPFAKDAVFEAIDAGIELIVVITEHIPVHDTMEFVNYAEDVGVKIIGPNTPGIASPKVGKLGIIPMEVLKEGSVGMVSRSGTLTYEIAHQIKKAGFGVSTCVGIGGDPIVGLRYKEVLDLFEKDDETEAIVMIGEIGGGAEEEAAKFIEKMKKPVIGYIAGQSAPEGKRMGHAGAIVEKGKGTAESKMKALEEAGAYVAKNISDIPKLLAGILGK | soluble |
| MSELPPLNTDTIWGILNDQIDDATVMQLVWYYLGYRYDATTEKWDNNAVPSEWRDEYPEPPNFLESRPATMKLTRSIPKQYKQITKEKLGFKGYKIGTFTPRETRRATSANWLLSYLQQQIDQGK | soluble |
| MSLTDVLTATYELYLAEGESPEGKARGIALEQTVEMPADCLPGDIAERMVGRIRTLEPRADHWVLEIDYPLAAIGGELTQCLNLLFGNISLQSGIRLVQVAWPPSLLRRWGGPGLGVSGLRARLDVGARPLLCAALKPMGLSAPALAARCAAFARGGVDLIKDDHGLADQPDAPFAERLNACQDAVRQANRRSGGRSLYLPNVTAAPQALGERLAAARDAGCEMVLISPWLTGLETLRWARDEYGLALMAHPAMTGGLFLPRHGISPALLLGELFRIAGADAVIYPNVGGRFRFSADTCQAINHALRRPLEGLASAWPTPGGGVDVKRAGHWKQAYGPDTILLIGGSLYAQGDIEAASRALMQAIRDEGHHHHHH | soluble |
| MSLLITAGVIALGFNFKRFQNEYDWLTLKPEQKLNVPLVNQLPDLPNGCEVTSLAMLLKYYDINVSKLELSSNIKHVSSFVGNNYRGNPHVGFVGYMSIKNAGWCVYNEPLYNVARKYTKRIRNYTGNDFVQVLKLVSKRHPVVIITTLKFDRVNDMQTWSTKQGKVHVTPSSHACVITGYNKKKGIVYVNDPYGVKNKKVSLKKIEASYNQQGKQALYIEEGHHHHHH | soluble |
| MFSGKTSRLIELMERHILAGRKVTLFKPEIDSRYSENEVVTHKGIKLPAVIAPTDERFGEFLAARTRDSNVLGFDEAQFWKPSSRLPQHLEDLANSGRTVYVAALNRDHFGNPFRMTVDILAISDEIYTLSAVCSRCGSDAIFTQRIINGSPAFGEIIRIGGKDLYEPRCRNCFVWPSAQKRITDL | soluble |
| MSMDIVMKSDEQPFISAPVCFKTFAFFAKASAEECKLLASGSNARESFQQATGLSEKITEDIYRQIDVSHISSMVFNREMDGGIERNRLGSQAILLDENSRRRNPQFKSIALRSLRYDHIDHRALARKSPHLMPPTYIKEEIMDDELDEVKEEEVSVGEAALPTAKVELNMDHPEKDLIISTSVYLGYTRTLQYHEIRLGRLMKVTDRLELTGDHTLRDLKNAFSCPIDFSFSDDFSEKKPSFKDMAKNKWPSSMFFIHDTFYIDSNTGDQFVDPSITIRTWAKKFDYIGPMHVKQMSETRIGDLICRLGQPYVYIHQGVCEHLIVFNDLCLRDESHTNVEFPRRLVERNFRRIACDTCKEASAHWMIVDHDNLLPNSPGYLCSSCYKEFCFDVNGNKVCQFKAVPYCDRKDIGDGRQFFTELDL | not soluble |
| MNTDILIGAIAGDIIGSYYEFVPIKSIDFPLFNGSSSHFTDDTIMTIANADWLLTGDSLLGIMQDYGNRYHSSYGSMFYEWLRADNPQPYNSWGNGSAMRVSPIDWAFNTLEETLEAAKQSAEVTHNHPEGIKGAQATAACIYLARTGKSKQEIKEYVETTFGYNLNRTCDDIRPTYHFNESCQGTIPESIIAFLESTDYESAIRLTISLGGDADTMGAITGGIAEAYYKEIPQYIIDEVLKRLSEEFIDIMQRFYRMFISS | not soluble |
| MRKIRLVYRRFPNRVIMREDEVIEDFGDVIVAKSEFTGMLAPLRVNGVEVINNGYKMVYFAFIGRDFDVLKIYDPSGNFKGLYVDVLDYTRREGNTVEILDLFLDIFIFPEGEYYLLDEDELEMAFNYGIISREKLLKAYDTAERIIGQIKRGKFPPKIVWEYSL | not soluble |
| MEKQNFVVLKNICKRFGSNTVIGNLDLEIKKGSLVTLLGPSGCGKTTVLRLVAGLEKPTSGQIFIDGEDVTERSIQQRDICMVFQSYALFPHMSLYENVAYGLKMLKLPSEEVRQRVDEALKIVDLEGMGERYVDQISGGQQQRVALARALVLKPKVLLFDEPLSNLDANLRRSMRETIRELQQRFDITSLYVTHDQAEAFAVSDTVIVMKQGDIMQIGTPQELYKAPKSMFMANFMGEANMFQGHFDGQQIHINGYAIDADLEVTRDKPNGEYQIGVRPEAITLHTQGSESQACQILKSAYMGSMYEVTVKWHDQELLLQLNSAQFNHTLTQHAYVVFNPRGLFLLPYAE | not soluble |
| MNNDNKRSAGGLGLVGDIGGTNARFALWRGQRLESIEVLACADYPRPELAVRDYLARIGESVANIDSVCLACAGPVGAADFRFTNNHWVINRAAFREELGLDHLLLVNDFSTMAWAASRLGADELVQVRAGSAQADRARLIIGPGTGLGVGSLLPLGGGRWEVLPCEGGHVDLPVTSPRDFALWQGLQARYGHVSAERALSGNGLLALYEISCALDGVAVRASSAAEVGALAMAGDAQADAVLEHFFLWLARVAGNAVLTVGALGGVYITGGIVPRFLERFIASGFAEAFASRGKTSGAYLQDVPVWVMTAEHPGLLGAGVALQQALDAEG | not soluble |
| INPAAHGAMDELLGELRLHTVCREARCPNITECFRERQATFLILGAECTRLCSFCNVTKGEPLPPDPDEPARVAQAVVRLSLAHVVITSPTRDDLPDGGAGHYVATVATIGRVAPATVVELLIPDFLGSRAALADVVAAAPRIIGHNVETVPRLYAIRAGADYGRSLAVLRTLRELAPGCATKSGLMLGLGETEEEVLAVMADLRRVDCTYLSLGQYLAPSRFHHPVREFVLPETFDRLKELAEKMGFRHVESGPY | not soluble |
| MARTLFLEEGPMFFEKIAPYTYRIPRQGKMRVDAVFFASKEILKDLEAENYASLQQLMNVATLPGIVEPALAMPDIHWGYGFPIGGVAAFDPEEGGVVSPGGVGFDINCGVRLLASHLTLEDLLPRQKELADALYRLVPSGVGSERRDVRFSKRELKEILKEGAGWLVKRGYGYPEDVRFIESQGRLPWANPDKVSERAFERGAPQIGTLGSGNHFLEVQYVDEVYDEEAALAFGLFKGQVTVLIHTGSRGLGHQVCQDYVERFLKVAPRYGIELVDKQLAAAPIKSPEGQDYLQAMAAAANFAFANRQLIAHFVREAFEKVGFTPRDHGLRVLYDLAHNNAKFEEHRGRRVLVHRKGATRAFGPGHPEVPEEYRRVGQPVLVPGDMGRYSYVLAGTEKAMEVSFGSSCHGAGRKMSRHQAKKVARERNLVKELAERGILVRAATRATVDEEMPEAYKDVSLVVEAVEGAGIGKKVARLRPLIVVKG | soluble |
| MVSSQPKYDLIREVGRGSYGLVYEALVRRTGQRVAVKKIRCQAPENVELALREFWALSSIQSQHPNVIHLEECVLQRDGMVQRMLHGSSSVLYLP | not soluble |
